In publication PMC2248580 (BMC Structural Biology, 2007):

Target: T1, human activated blood coagulation factor X (FXa) (human)
T1 construct: also called factor Xa; Stuart factor
Test: SPR; […]; 37°C; HBS (10 mM Hepes, 150 mM NaCl, 5 mM CaCl2, 0.005% P20, pH 7.4); Langmuir fit; […]
Settings: both partners purified

T1 sequence (P00742 whole entry): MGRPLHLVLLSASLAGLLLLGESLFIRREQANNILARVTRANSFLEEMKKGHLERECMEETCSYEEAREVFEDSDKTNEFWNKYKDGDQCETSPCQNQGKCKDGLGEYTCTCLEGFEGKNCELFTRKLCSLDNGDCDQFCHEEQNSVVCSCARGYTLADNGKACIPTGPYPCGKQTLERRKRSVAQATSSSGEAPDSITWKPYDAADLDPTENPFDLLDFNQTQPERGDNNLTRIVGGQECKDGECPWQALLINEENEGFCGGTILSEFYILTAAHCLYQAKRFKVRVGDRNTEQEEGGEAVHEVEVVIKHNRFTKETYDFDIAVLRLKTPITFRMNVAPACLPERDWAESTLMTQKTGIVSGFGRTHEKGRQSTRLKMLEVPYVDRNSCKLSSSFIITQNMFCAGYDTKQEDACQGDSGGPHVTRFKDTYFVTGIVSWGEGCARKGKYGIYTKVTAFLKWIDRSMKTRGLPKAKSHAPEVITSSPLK

Row | Binder | Kd | koff | kon
1 | VRV-PLVIII, the PLA2 from Daboia russelli pulchella venom (enzyme) SLLEFGKMILEETGKLAIPSYSSYGCYCGWGGKGTPKDATDRCCFVHDCCYGNLPDCNPKSDRYKYKRVNGAIVCEKGTSCENRICECDKAAAICFRQNLNTYSKKYMLYPDFLCKGELKC | 578 ± 15 nM | 0.026 s⁻¹ | 45000 M⁻¹ s⁻¹
2 | Vbb, the PLA2 from Vipera berus berus venom (enzyme, γ-carboxyglutamic acid in the Gla domain (residues 1–39)) NLFQFGNMINHMVGKHAVWSYLSYGCYCGWGGQGKPQDATDRCCFVHDCCYGRANGCDPKLSTYSYNFQNGNIVCGNKYGCLRHICECDRVAAICFQKNMNTYNKKYKNYSSSNCQENSDKC | 830 ± 15 nM | 0.025 s⁻¹ | 30000 M⁻¹ s⁻¹
